Measured values published in the DeepSol protein solubility set.

Assay: soluble on expression in E. coli; label from the status in PepcDB or PDB records

Sequence	soluble on expression in E. coli
SKGYFETNRIQHIIVDEAQNFHTEDGNWCEKAKGITQGGKACPRMFWIFLDYFQTSHLKESGLPDFELQYPKEELTQVVRNGDKIAEFLQQELGKIRDNPPCSIPRASLNIVHEFKWSQSISGTLKIKYLTSEKMVSYVANKCDVFLSKGYSPQDIAVLFSTDREKKAYEHMFLREMRKKRRASQMNDTSVCHSNMFDRIRRFSGLERSIVFGINPIATEQPISHNLLICLASRAMKYLYILYALTPEGQSSTVAC	soluble
SKIFSKCELARKLKSMGMDGFHGYSLANWVCMAEYESNFNTQAFNGRNSNGSSDYGIFQLNSKWWCKSNSHSSANACNIMCSKFLDDNIDDDIACAKRVVKDPNGMSAWVAWVKHCKGKDLSKYLASCNL	soluble
SKNFNYTISFVGSTSNNKFVSFSNQFYEGPKYYWMSNFPLYPGNPGVLQRIEEGERIGNFYTFQYAGLDDNGGWLIYSKDGEVIPIDKGTDEDKRVVGNGLPKFTMSVTHTFRCKNLDLNLYFRGNLGYQIYDVHDLYYGLQDAAPNTNVLESAYKENRKITTGKNVHSSYFVHNGDFMKLDVATLGYTWNINNKWVEKARFYITGRNLFTISGYHRGLDKDAYCVNGMEPGLPYSKNGYYPSSRQFLFGIQLNF	not soluble
SKVKVAVRIRPMNRRETDLHTKCVVDVDANKVILNPVNTNLSKGDARGQPKVFAYDHCFWSMDESVKEKYAGQDIVFKCLGENILQNAFDGYNACIFAYGQTGSGKSYTMMGTADQPGLIPRLCSGLFERTQKEENEEQSFKVEVSYMEIYNEKVRDLLDPKGSRQTLKVREHSVLGPYVDGLSKLAVTSYKDIESLMSEGNKSRTVAATNMNEESSRSHAVFKITLTHTLYDVKSGTSGEKVGKLSLVDLAGSERATKTGAAGDRLKEGSNINKSLTTLGLVISALADQSAGKNKNKFVPYRDSVLTWLLKDSLGGNSKTAMVATVSPAADNYDETLSTLRYADRAKHHHHHH	soluble
SLEECVCENYKLAVNCFVNNNRQCQCTSVGAQNTVICSKLAAKCLVMKAEMNGSKLGRRAKPEGALQNNDGLYDPDCDESGLFKAKQCNGTSTCWCVNTAGVRRTDKDTEITCSERVRTYWIIIELKHKAREKPYDSKSLRTALQKEITTRYQLDPKFITSILYENNVITIDLVQNSSQKTQNDVDIADVAYYFEKDVKGESLFHSKKMDLTVNGEQLDLDPGQTLIYYVDEKAPEFSEG	not soluble
SLFARITFYPSLFYNVMMEKITARHWYDRIDENVILGALPFRSVAQEMVQKENIKAVVSMNEDYELWAFSNNKARWAKLGVEFLQLETTDIFESPCQEKLWKGVNFMNRFLPANDRMALLPAAPGELAEPGTIYVHSKAGRTRSATLVGCYLIMKNGWSPEQAVEHMRQCRPHILLRSKQWEALRLFHQTKCPPPK	soluble
SLGRNWRSWRYAERADDLLISRGVLWREETVVPYGRMQLVEVTSGPVERHFGLASVQLHTAAAATDATIPGLDPAEAERLRDRLTELGEARSAG	soluble
SLIKNEHVKKCDTWPSGGEMVVKDLTVKYVDDGNAILENICFSISPGQRVGLLGRTGSGKSTLLSAFLRMLNIKGEIQIDGVSWNSMTLEEWRKAFGVITQKVFIFSGTFRQNLDPNGKWRDEEIWKVADQVGLKSVIEQFPGQLNFTLVDGGYVLSHGHKQLMCLARSVLSKAKIILLDEPSANLDPITYQVIRRVLRQAFAGCTVVLCEARIEAMLDCDRFLVIEQGNVWQYESLQALLSEKSDFQRALSSSE	soluble
SLKAIKNGTILTGTGETIKQGTLLIQDGKVLEVGQRVDTPANAKLIDATGKYVTPGLIDVHTHIGVFSEGLGRTGHDFNETTAAATPYIRAIDGIYPFDQGFEDARQSGVTTVQIMPGSANVIGGEMVTVKTAGTVVDEMIVRAPSGMKAAFGENPKNVHGGKGKLPATRMGVAALFRQQLYQAQDYLKRFEKGELEKRDLGMEQLAKVLRKEIPLRVHAHRADDIATVLRMVDEFDLEATIEHCTEGHLIADHIAKYNVKVSVGPTMTSRTKQELVNKGWHTLIELEKHGIPFSITTDHPVVTINHLVTSAIQAVKAGLSEQSAFQAITLRAAEHIGVEQQVGSLEKGKDGDFVIWSDHPFTATAQVEATYINGKCVTGSHC	not soluble
SLKEVLESKLNDRPDANVLIGLGRNISGEAVLAELNKMPHLLVAGATGSGKSVCVNGIITSILMRAKPHEVKMMMIDPKMVELNVYNGIPHLLAPVVTDPKKASQALKKVVNEMERRYELFSHTGTRNIEGYNDYIKRANNEEGAKQPELPYIVVIVDELADLMMVASSDVEDSITRLSQMARAAGIHLIIATQRPSV	not soluble
SLKIYRSTLLHTPASPFAVPDALQTFSDGALAVGDTGTIAHLGTFTEVLAEVRAACPDAEVHDLRGGVLLPGFIDTHVHYPQVRVLGGLGMALLEWLDRNTLPEEARLADAAYARTIAGEFLHGLASHGTTTALVFGSHFAGAMDEFFAEAAARGLRVVAGQVVSDRLLRPELHTTPERAYAEGKALIERWHGQGRSLYAVTPRFSLSASEGILDACAALLTEFPDVRFTSHINENNQEIEVVRGLFPGARDYLDTYERAGLVTPRSVFAHNVHPNERELGVLAAQRCSVAHCPCSNSALGSGLFPLRRHLAAGVHVALGTDVGGGTGFSLLKEGLQAYFMQQLLGEEGAALSPAHLLYLATLAGAQALGLDGQVGDFTPGKQFDAVWLRPRAGSTLATVLAHAESEERTLAALFALGTGDDVERVWVGGGVVFAREAEA	soluble
SLKKIVESTTFPRTKQSITEDLKALGLKKGMTVLVHSSLSSIGWVNGGAVAVIQALIDVVTEEGTIVMPSQSVELSDPKEWGNPPVPEEWWDIIRESMPAYNSNYTPTTRGMGQIVELFRSYPEVKRSNHPNYSFVAWGKHKNKILNQHPLEFGLGEQSPLGKLYIRESYVLLLGADFDSSTCFHLAEYRIPYQKIINRGAPIIVEGKRVWKEYKELEFREELFQEVGQAFEAEHNMKVGKVGSANCRLFSLTEAVDFAEKWFINNDSKNIKK	soluble
SLLGMNFAMHTTIDTKLVLFGPSENLVTEDDDARNMASKLIENGIITTACINYVKDKPAESKLREMRIVLEPVGKIISDYIKDGYVPVTF	not soluble
SLNDNFKKQPHHLIYEELLQQGITLGITTRGDGLSDYPKNAFNMARYIDDRPYNITQHQLQLAEEIAFDRKNWVFPIQTHENKVACITKDDIGTNIDTLTDALHGIDAMYTYDSNVLLTMCYADCVPVYFYSTKHHFIALAHAGWRGTYTEIVKEVLKHVNFDLKDLHVVIGPSTSSSYEINDDIKNKFETLPIDSANYIETRGRDRHGIDLKKANAALLIYYGVPKENIYTTAYATSEHLELFFSYRLEKGQTGRMLAFIGQQ	soluble
SLNFRAEDLASGILRERVKVGASLADVDPMNIDKSVRFDSIGGLSHHIHALKEMVVFPLLYPEIFEKFKIQPPRGCLFYGPPGTGKTLVARALANECSQGDKKVAFFMRKGADCLSKWVGESERQLRLLFDQAYLMRPSIIFFDEIDGLAPVRSSRQDQIHSSIVSTLLALMDGLDNRGEIVVIGATNRLDSIDPALRRPGRFDREFLFNLPDQKARKHILQIHTRDWNPKLSDAFLGELAEKCVGYCGADIKALCTEAALIALRRRYPQIYASSHKLQLDVSSIVLSAQDFYHAMQNIVPASQRAVMSSGHALSPIIRPLLERSFNNILAVLQKVFPHAEISQSDKKEDIETLILEDSEDENALSIFETNCHSGSPKKQSSSAAIHKPYLHFTMSPYHQPTSYRPRLLLSGERGSGQTSHLAPALLHTLERFSVHRLDLPALYSVSAKTPEESCAQIFREARRTVPSIVYMPHIGDWWEAVSETVRATFLTLLQDIPSFSPIFLLSTSETMYSELPEEVKCIFRIQYEEVLYIQRPIEEDRRKFFQELILNQASMAPPRRKHAALCAMEVLPLALPSPPRQLSESEKSRMEDQEENTLRELRLFLRDVTKRLATDKRFNIFSKPVDIEEVSDYLEVIKEPMDLSTVITKIDKHNYLTAKDFLKDIDLICSNALEYNPDKDPGDKIIRHRACTLKDTAHAIIAAELDPEFNKLCEEIKEARI	soluble
SLNGRPTTPNGAAGKWGDYRKCDTPKRTVDHMLNHIADTHSDIDFIIWTGDLPPHDVWNQTKEENLKVLKETVTQMTEKFPGIPIFPALGNHESAPVNSFPPPYVQQVDSSIAWLYDELDVQWRRWLPASVSHTVRRGAFYSVLVRPGYRIISLNMNYCNNKNWWLLLNSTDPATELQWFIYELQSAEFAGEKVHVIGHIPPGHSDCLKVWSRNYYKIVSRFESTITAQFFGHTHFDEFEVFYDPHDLSRATSIAYIGPSVTPYNDLNPGYRIYYIDGDHDETTRLVVDHESWIMNLKEANLYDYPIWYKLYSTRAAYGMKGLRPADWDQLINNMTDSKELFDLYYKHYWKASPVKPECDYECRKRILCDAKSGRSHDRKYFCEEVEAKIDESNKGWKDWLFS	not soluble
SLNSPIATVEVFTLTQPRKVPYLGALREGEVVNPNGYIVRKGNRTVYPTFDRSVLVRMTTEAGTVGWGETYGIVAPGAVAALINDLLAGFVIGRDASDPSAVYDDLYDMMRVRGYTGGFYVDALAALDIALWDIAGQEAGKSIRDLLGGGVDSFPAYVSGLPERTLKARGELAKYWQDRGFNAFKFATPVADDGPAAEIANLRQVLGPQAKIAADMHWNQTPERALELIAEMQPFDPWFAEAPVWTEDIAGLEKVSKNTDVPIAVGEEWRTHWDMRARIERCRIAIVQPEMGHKGITNFIRIGALAAEHGIDVIPHATVGAGIFLAASLQASSTLSMLKGHEFQHSIFEPNRRLLDGDMDCREGRYHLPSGPGLGVRPSEAALGLIERI	soluble
SLPHCETLLLEPIEGVLRITLNRPQSRNAMSLAMVGELRAVLAAVRDDRSVRALVLRGADGHFCAGGDIKDMAGARAAGAEAYRTLNRAFGSLLEEAQAAPQLLVALVEGAVLGGGFGLACVSDVAIAAADAQFGLPETSLGILPAQIAPFVVRRIGLTQARRLALTAARFDGREALRLGLVHFCEADADALEQRLEETLEQLRRCAPNANAATKALLLASESGELGALLDDAARQFAEAVGGAEGS	not soluble
SLQAINPNWNVPKNIHAFTTTREGGVSLAPYLSFNLGDHVGDNKSAVKTNRTLLVEKFGLPQTPIFLTQTHSTRVIQLPYSGQNLEADAVYTNVPNQVCVVMTADCLPVLFTTTSGNEVAATHAGWRGLCDGVLEETVKYFQAKPEDIIAWFGPAIGPKAFQVGIDVVEKFVVVDEKAKLAFQPDAIEEGKYLSNLYQIATQRLNNLGITQIYGGNHCTFNEKEKFFSYRRDNQTGRMASVIWFE	soluble
SLQQSAKKNAAPAPAAQPAPAPTQPQADGAQQAGWVVRCTSVSRDAPLECAMEQNAVLTKTGQTIVLINIRIAPDTRTPVALLQLPLGLNLPIGAKLQVDEGKTVDLQIQTCENRGCYASTPIAADLLAALRSGKQLKVSFQNMAKETIAIPMPLGDFAAAYDKIK	not soluble
SLRGWRGLRVYDMHVHLHEYSDREVEEILDADKSLVVVAVSDDLESAWRTLDLWHTFGGRVVPCLGFHPWNVREGRVWEAWEVLRLAYRYGVPCLGEVGLDRRFVDEYTWRVQNEVFDAFVQLAEDMGVMLNIHAPDAWKHVAHRIGWTSRARFMYHWYTGPATLPRALPEGRVWFSINSAIRVQEKSVRVAREIPLRSLVVESDGPYNYRGLRLSPLMVRETVKLVAEARGEDPGRLMEAISLNSERLLGLL	soluble
SLSLLIDIVDETGSVSEEMLKEVENLLQFAAEREGVQDQAEVSVTIVSNDDIHQINKEYRGKDAPTDVISFALEEEGEGEIEIVGAEMPPVLGNIIISADRTREQAEEYNHSFKRELGFLAVHGFLHLLGYDHMTKEEEEEMFTKQKELLDAYGLKRS	soluble
